Experimental findings from US20050282743A1, “Molecular interactions in cells” (Arbor Vita Corporation, priority 2001, published 2005) are described below.

Ends that are not written are not given here. Peptide text beside a SMILES is read from it. * marks the point of attachment. Biotin = O=C1N[C@H]2[C@H](CS[C@H]2CCCCC(=O)*)N1

Holding throughout (assay): G' assay (10 uM PL peptide), results of TABLE 7 and TABLE 12
What all share (assay type): binding

The target in test [1] is T1, PDZ protein (GST-PDZ fusion) (Homo sapiens, UniProt O14641).
T1 construct: made in house; host or cells: E. coli (DH5alpha, BL21 or JM109)
T1 sequence (O14641 1-736): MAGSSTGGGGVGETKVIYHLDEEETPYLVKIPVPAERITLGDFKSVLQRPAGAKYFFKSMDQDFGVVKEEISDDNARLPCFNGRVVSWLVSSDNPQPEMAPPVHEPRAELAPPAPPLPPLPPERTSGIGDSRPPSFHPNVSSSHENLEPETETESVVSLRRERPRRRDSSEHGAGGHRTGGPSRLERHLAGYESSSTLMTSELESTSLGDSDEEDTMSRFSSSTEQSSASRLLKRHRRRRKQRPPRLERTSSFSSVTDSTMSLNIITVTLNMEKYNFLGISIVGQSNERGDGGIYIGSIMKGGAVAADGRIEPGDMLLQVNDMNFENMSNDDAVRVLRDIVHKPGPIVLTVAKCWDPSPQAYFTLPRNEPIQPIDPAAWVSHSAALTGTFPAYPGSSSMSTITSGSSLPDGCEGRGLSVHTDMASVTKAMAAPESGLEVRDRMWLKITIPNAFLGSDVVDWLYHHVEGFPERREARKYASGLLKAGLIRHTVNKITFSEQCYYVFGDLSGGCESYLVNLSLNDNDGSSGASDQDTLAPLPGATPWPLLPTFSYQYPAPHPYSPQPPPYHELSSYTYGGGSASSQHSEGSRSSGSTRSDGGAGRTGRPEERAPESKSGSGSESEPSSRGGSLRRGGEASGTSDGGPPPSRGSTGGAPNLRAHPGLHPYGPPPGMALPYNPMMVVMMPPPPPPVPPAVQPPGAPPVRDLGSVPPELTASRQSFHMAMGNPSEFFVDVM
The conditions noted are these: PDZ DVL2, PDZ Domain 1. In short, it runs like this: (§1)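 Biotinylated PL peptides at 10 uM (vs 20 uM in G^0 assay) bound to GST-PDZ fusions; PDZ protein at 5 ug/ml unless another concentration listed. Bound peptide read as A450 nm, classified 0–5 (0 = A450 0; 5 = A450 >4 repeated).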

The target in test [2] is T2, PDZ protein (GST-PDZ fusion) (Homo sapiens, UniProt Q9C0E4).
T2 construct: made in house; host or cells: E. coli (DH5alpha, BL21 or JM109)
In short, it runs like this: as §1

The target of test [3] is T3, PDZ protein (GST-PDZ fusion) (Homo sapiens, UniProt Q9Y3R0).
T3 construct: made in house; host or cells: E. coli (DH5alpha, BL21 or JM109)
T3 sequence (Q9Y3R0 1-1128): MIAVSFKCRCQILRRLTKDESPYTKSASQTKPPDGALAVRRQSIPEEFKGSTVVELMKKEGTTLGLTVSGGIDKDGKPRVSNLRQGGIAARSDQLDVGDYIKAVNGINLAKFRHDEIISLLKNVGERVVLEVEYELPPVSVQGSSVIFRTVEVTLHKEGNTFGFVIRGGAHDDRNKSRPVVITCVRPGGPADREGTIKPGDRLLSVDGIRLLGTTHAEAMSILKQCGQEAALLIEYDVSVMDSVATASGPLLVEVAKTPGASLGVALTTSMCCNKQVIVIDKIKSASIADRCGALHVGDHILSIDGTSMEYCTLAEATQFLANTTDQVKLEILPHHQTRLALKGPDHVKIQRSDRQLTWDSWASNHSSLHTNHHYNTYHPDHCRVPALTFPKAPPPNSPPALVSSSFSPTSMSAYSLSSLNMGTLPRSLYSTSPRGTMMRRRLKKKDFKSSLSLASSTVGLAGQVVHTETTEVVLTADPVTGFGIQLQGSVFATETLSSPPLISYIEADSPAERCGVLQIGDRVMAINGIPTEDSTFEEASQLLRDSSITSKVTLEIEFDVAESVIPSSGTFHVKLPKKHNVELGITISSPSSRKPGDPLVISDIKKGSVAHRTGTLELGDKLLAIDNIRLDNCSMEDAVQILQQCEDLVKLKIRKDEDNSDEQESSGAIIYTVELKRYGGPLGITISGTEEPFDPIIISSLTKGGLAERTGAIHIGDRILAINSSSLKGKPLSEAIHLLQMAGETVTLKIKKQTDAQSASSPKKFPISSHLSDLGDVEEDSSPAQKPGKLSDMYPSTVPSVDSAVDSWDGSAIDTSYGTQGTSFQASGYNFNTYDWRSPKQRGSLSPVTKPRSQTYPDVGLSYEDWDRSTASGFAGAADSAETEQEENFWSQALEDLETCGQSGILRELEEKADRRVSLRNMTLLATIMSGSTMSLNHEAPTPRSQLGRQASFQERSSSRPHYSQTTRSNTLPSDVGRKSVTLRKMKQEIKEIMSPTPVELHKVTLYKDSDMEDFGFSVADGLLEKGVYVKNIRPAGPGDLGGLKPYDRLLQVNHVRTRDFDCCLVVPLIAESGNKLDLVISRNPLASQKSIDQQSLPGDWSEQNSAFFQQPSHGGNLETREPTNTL
In short, it runs like this: as §1

T2 sequence (Q9C0E4 whole entry, the tested form may be a part): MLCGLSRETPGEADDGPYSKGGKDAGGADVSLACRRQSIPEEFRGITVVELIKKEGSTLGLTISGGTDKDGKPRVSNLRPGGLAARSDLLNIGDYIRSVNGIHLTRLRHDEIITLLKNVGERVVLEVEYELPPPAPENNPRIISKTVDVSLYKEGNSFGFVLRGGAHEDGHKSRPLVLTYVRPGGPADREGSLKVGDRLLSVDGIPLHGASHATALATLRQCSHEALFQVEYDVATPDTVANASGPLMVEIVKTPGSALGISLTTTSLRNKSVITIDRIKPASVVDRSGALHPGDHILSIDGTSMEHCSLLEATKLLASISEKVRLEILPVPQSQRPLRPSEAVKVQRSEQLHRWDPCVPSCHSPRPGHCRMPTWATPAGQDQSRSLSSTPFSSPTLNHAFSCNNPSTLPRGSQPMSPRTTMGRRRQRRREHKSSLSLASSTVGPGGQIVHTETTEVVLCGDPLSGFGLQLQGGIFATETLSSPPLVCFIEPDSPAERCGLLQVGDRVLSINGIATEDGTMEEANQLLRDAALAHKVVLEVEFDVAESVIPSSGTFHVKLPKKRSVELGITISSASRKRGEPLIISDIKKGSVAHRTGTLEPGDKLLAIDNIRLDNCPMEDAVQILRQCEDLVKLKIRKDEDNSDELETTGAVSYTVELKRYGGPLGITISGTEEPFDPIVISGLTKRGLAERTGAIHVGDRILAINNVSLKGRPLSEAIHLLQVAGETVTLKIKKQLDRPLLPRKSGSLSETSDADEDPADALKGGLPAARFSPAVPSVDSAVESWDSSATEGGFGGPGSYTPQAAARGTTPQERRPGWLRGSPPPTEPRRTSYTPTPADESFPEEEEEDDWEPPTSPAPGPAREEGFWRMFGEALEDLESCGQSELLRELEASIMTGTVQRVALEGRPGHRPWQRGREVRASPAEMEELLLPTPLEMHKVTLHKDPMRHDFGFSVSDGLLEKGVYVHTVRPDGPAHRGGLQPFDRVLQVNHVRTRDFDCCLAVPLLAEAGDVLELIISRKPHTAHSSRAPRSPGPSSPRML

As for `CC[C@H](C)[C@H](NC(=O)[C@H](Cc1ccc(O)cc1)NC(=O)[C@@H](NC(=O)[C@@H]1CCCN1C(=O)[C@H](CCC(N)=O)NC(=O)[C@H](CCC(=O)O)NC(=O)[C@H](CCC(N)=O)NC(=O)[C@H](C)NC(=O)[C@@H](NC(=O)[C@H](CC(C)C)NC(=O)[C@H](CC(C)C)NC(=O)[C@H](CCCNC(=N)N)NC(=O)[C@H](Cc1ccc(O)cc1)NC(=O)[C@H](CCSC)NC(=O)[C@H](C)NC(=O)[C@H](C)NC(=O)[C@@H]1CCCN1C(=O)[C@H](CCSC)NC(=O)[C@@H](NC(=O)[C@H](CCCCN)NC(=O)CCCC[C@@H]1SC[C@@H]2NC(=O)N[C@@H]21)[C@@H](C)O)[C@@H](C)O)C(C)C)C(=O)O` [MINT-1] (Biotin-KTMPAAMYRLLTAQEQPVYI-OH; C-terminus assumed), in test [1], the Classification is 2 (A450 nm 1-2).

Consider “A2AC_HUMAN (Modified) (Biotin-DFRPSFKHILFRRARRGFRQ; not fully specified)”, for which the Classification in test [1] is on record as 3 (A450 nm 2-3); in test [2] (PDZ KIAA1719, PDZ Domain 3), 5 (A450 nm of 4 more than 2× repeated); in test [3] (PDZ GRIP1, PDZ Domain 5), 1 (A450 nm 0-1).

As for “KTMPAATYRLLTGQEQPVYL (Biotin-KTMPAATYRLLTGQEQPVYL) [MINT-3]”, the Classification in test [1] is 1 (A450 nm 0-1).

On to `CC[C@H](C)[C@H](NC(=O)[C@H](Cc1ccc(O)cc1)NC(=O)[C@H](CC(C)C)NC(=O)[C@H](CCC(N)=O)NC(=O)[C@H](Cc1c[nH]cn1)NC(=O)[C@H](CO)NC(=O)[C@H](C)NC(=O)[C@H](CC(C)C)NC(=O)[C@@H](NC(=O)[C@H](CC(=O)O)NC(=O)[C@H](CCSC)NC(=O)[C@H](Cc1ccccc1)NC(=O)[C@@H]1CCCN1C(=O)[C@H](CCCNC(=N)N)NC(=O)[C@@H](NC(=O)[C@H](CC(C)C)NC(=O)[C@H](CC(N)=O)NC(=O)[C@H](CC(=O)O)NC(=O)[C@@H](NC(=O)[C@H](CO)NC(=O)CCCC[C@@H]1SC[C@@H]2NC(=O)N[C@@H]21)[C@@H](C)O)C(C)C)[C@@H](C)O)C(=O)O` [presenilin-2] (Biotin-STDNLVRPFMDTLASHQLYI-OH; C-terminus assumed), for which the Classification in test [1] is listed as 1 (A450 nm 0-1).

Consider “ALVLIAFCIIRRRPSAYQAL (Biotin-ALVLIAFCIIRRRPSAYQAL) [CD68]”, for which the Classification in test [1] was 2 (A450 nm 1-2); in test [2] (PDZ KIAA1719, PDZ Domain 3), 1 (A450 nm 0-1); in test [2] (PDZ KIAA1719, PDZ Domain 6), 1 (A450 nm 0-1); in test [3] (PDZ GRIP1, PDZ Domain 6), 1 (A450 nm 0-1).

“KTMPAAMFRLLTGQETPLYI (Biotin-KTMPAAMFRLLTGQETPLYI) [MINT-2]”: the Classification in test [1] is given as 2 (A450 nm 1-2).

Consider “ELLQFCRTPNPALKNGQYWV (Biotin-ELLQFCRTPNPALKNGQYWV)”, for which the Classification in test [1] is listed as 5 (A450 nm of 4 more than 2× repeated); in test [2] (PDZ KIAA1719, PDZ Domain 6), 5 (A450 nm of 4 more than 2× repeated); in test [3] (PDZ GRIP1, PDZ Domain 5), 1 (A450 nm 0-1); in test [3] (PDZ GRIP1, PDZ Domain 7), 5 (A450 nm of 4 more than 2× repeated).
